Literature values as cited in patent publication US7759315B2, “Treatment of inflammatory conditions of the intestine” (CSL Behring AG, priority 2005, dated 2010).
Non-standard residues stand in square brackets, D forms with d. No end group written: not given here. Nal = naphthylalanine (source code Z); Aib = CC(C)(N)C(=O)O

Assays:
[1] = percent helicity; for He (%): micelles; for He (%) free: free peptide
LCAT = molecular target: T1, LCAT (Homo sapiens, UniProt P04180)
T1 sequence (P04180 25-440): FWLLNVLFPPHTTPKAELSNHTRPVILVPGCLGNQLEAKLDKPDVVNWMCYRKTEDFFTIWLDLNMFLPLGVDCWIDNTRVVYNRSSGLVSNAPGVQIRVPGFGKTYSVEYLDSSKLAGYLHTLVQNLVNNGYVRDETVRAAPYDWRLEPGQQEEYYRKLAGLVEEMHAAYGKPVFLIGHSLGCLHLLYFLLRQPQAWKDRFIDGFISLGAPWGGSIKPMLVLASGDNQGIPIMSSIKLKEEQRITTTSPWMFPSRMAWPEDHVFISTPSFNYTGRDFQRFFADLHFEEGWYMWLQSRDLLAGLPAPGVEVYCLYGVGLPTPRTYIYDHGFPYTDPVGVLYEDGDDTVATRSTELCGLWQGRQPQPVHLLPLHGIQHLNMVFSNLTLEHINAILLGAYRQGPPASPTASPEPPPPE

ACTIVITY (%) LCAT (LCAT) [%] | Substance | He (%) [1] | He (%) free [1] [%] | He (%) SUVs ([1]; SUVs) [%]
88 | PVLELFRELLEELKQKLK* (not fully specified (N-terminus, C-terminus); printed as PVLELFRELLEELKQKLK*) [Peptide 194] | 93% | – | –
1 | P~~~~~~~LLNELLEALKQKLK (PLLNELLEALKQKLK) [Peptide 104] | 49% | – | –
24 | PVLELFENLLERLLDAWQKKLK [Peptide 164] | 66% | – | –
5 | DWLKAPYDKVAEKLKEAF (DWLKAFYDKVAEKLKEAF) [Peptide 244, 18A peptide (Anantharamiah et al., 1985), reference compound] | 40% | – | –
46 | PVLDLFRELLEELKQKLK [Peptide 210] | 63% | – | –
16 | PVLDLFRELLNELLEALKQ~~~ [Peptide 60] | 83% | – | –
2 | pvldlfrellneXlealkqklk [Peptide 100] | 92% | – | –
111 | pVLELFENLLERLLDALQKKLK ([dP]VLELFENLLERLLDALQKKLK; not fully specified (C-terminus); printed as pVLELFENLLERLLDALQKKLK) [Peptide 144] | 88% | 89 | –
20 | PVWDEFREKLNEXLEALKQKLK (PVWDEFREKLNE[Aib]LEALKQKLK; not fully specified (C-terminus)) [Peptide 52] | sp | – | –
83 | PVLDLFKELLNELLEALKQKLK [Peptide 7] | 89% | – | –
1 | PAADAFREAANEAAEAAKQKAK [Peptide 105] | 28% | – | –
24 | PVLDEFREKLNEXLEALKQKLK (PVLDEFREKLNE[Aib]LEALKQKLK; not fully specified (C-terminus)) [Peptide 45] | 84% | 24 | 25
23 | PVLDLFREKLNEXLEALKQKLK (PVLDLFREKLNE[Aib]LEALKQKLK; not fully specified (C-terminus)) [Peptide 46] | 86% | – | –
44 | PVLDLFRELLNELZEALKQKLK (PVLDLFRELLNEL[Nal]EALKQKLK; not fully specified (C-terminus)) [Peptide 27] | 92% | – | –
51 | PVLDFFRELLNEXLEALKQKLK (PVLDFFRELLNE[Aib]LEALKQKLK; not fully specified (C-terminus)) [Peptide 25] | 82% | – | –
6 | PVLDEFRELLNEXLEALKQKLK (PVLDEFRELLNE[Aib]LEALKQKLK; not fully specified (C-terminus)) [Peptide 91] | 100% | – | –
31 | PLLELLKELLQELLEALKQKLK [Peptide 36] | 100% | – | –
75 | PVLELFENLLERLGDALQKKLK [Peptide 148] | 76% | – | –
11 | EWLEAFYKKVLEKLKELF* (Ac-EWLEAFYKKVLEKLKELF-NH2) [Peptide 239, Ac-18AM4-C(O)NH2 peptide (Brasseur, 1993), reference compound] | 49% | – | –
9 | PVLDEFRELLFEXLEALKQKLK (PVLDEFRELLFE[Aib]LEALKQKLK; not fully specified (C-terminus)) [Peptide 76] | 88% | – | –
10 | DWLKAFYDKVAEKLKEAF* (not fully specified (N-terminus, C-terminus); printed as DWLKAFYDKVAEKLKEAF*) [Peptide 240] | 68% | – | –

ACTIVITY (%) LCAT (LCAT) [%] | Substance | He (%) [1] | He (%) free [1] [%] | He (%) SUVs ([1]; SUVs) [%]
7 | P~LDLFRELLNELLEALKQKLK (PLDLFRELLNELLEALKQKLK) [Peptide 85] | 61% | – | –
28 | PVLELFENLLERLLDWLQKKLK [Peptide 160] | 73% | – | –
96 | PVLDLFRELLEELKQKLK* (not fully specified (N-terminus, C-terminus); printed as PVLDLFRELLEELKQKLK*) [Peptide 193] | 88% | – | –
14 | ~VLDLFRELLNELLEALKQKLK [Peptide 67] | 90% | – | –
26 | PVLELFENLLERLWDALQKKLK [Peptide 163] | 53% | – | –
2 | PVLDLFRELLNWXLEALKQKLK (PVLDLFRELLNW[Aib]LEALKQKLK; not fully specified (C-terminus)) [Peptide 101] | sp | – | –
4 | EWLEAFYKKVLEKLKELF [Peptide 246, 18AM4 peptide (Rosseneu et al., WO93/25581; Corijn et al., 1993), reference compound] | 44% | – | –
29 | PVLDLFRELLNEXLEAWKQKLK (PVLDLFRELLNE[Aib]LEAWKQKLK; not fully specified (C-terminus)) [Peptide 38] | 49% | – | –
0 | klkqklaellenllerfldlvp (KLKQKLAELLENLLERFLDLVP; not fully specified; D-amino acids; D-Lys; D-Leu; D-Gln; D-Ala; D-Glu; D-Asn; D-Arg; D-Phe; D-Asp; D-Val; D-Pro) [Peptide 107] | sp | – | –
0 | PVLDEFREKLNERLEALKQKLK [Peptide 109, [R^13]-Consensus 22-mer peptide (Anantharamaiah et al., 1990), reference compound] | 45% | – | –
22 | PVLDLFRELLEELQKKLK [Peptide 220] | 64% | – | –
25 | PVLDLFNELLRELLEALQKKLK [Peptide 40] | 84% | – | –
19 | EWLKAFYEKVLEKLKELF* (Ac-EWLKAFYEKVLEKLKELF-NH2) [Peptide 238, Ac-18AMOD-C(O)NH2 peptide (Epand et al., 1987), reference compound] | 72% | – | –
27 | PVLELFENWLERLLDALQKKLK [Peptide 162] | 83% | – | –
22 | PVLDLFRNLLEKLLEALEQKLK [Peptide 49] | 65% | – | –
38 | PVLDLFRELLEEWKQKLK* (not fully specified (N-terminus, C-terminus); printed as PVLDLFRELLEEWKQKLK*) [Peptide 215] | 63% | – | –
39 | PVLELFENLLERGLDALQKKLK [Peptide 154] | 76% | – | –
– | Ac-PVLDEFREKLNEELEALKQKLK-NH2 [Peptide 75, reference compound] | 28% | – | –
75 | NVLDLFRELLEELKQKLK* (not fully specified (N-terminus, C-terminus); printed as NVLDLFRELLEELKQKLK*) [Peptide 200] | – | – | –
6 | PLLELFENLLEKLLDALQKKLK [Peptide 183] | – | – | –

Substance | ACTIVITY (%) LCAT (LCAT) [%] | He (%) [1] | He (%) free [1] [%] | He (%) SUVs ([1]; SUVs) [%]
PVLDLFRELLEELLKALKKKLK [Peptide 39] | 25 | 69% | – | –
